The source of these data is PMC7039449, “FMN-dependent oligomerization of putative lactate oxidase from Pediococcus acidilactici” (PLoS ONE, 2020).

For one data set, the target named is T1, PaLCTO (Pediococcus acidilactici, UniProt E0NE46).
T1 construct: gene lctO; recombinant in E. coli, pNH-TrxT, N-terminal thioredoxin/His tag cut with TEV; 39 kDa monomer, FMN-containing homotetramer (158 kDa)
T1 sequence (E0NE46 1-369): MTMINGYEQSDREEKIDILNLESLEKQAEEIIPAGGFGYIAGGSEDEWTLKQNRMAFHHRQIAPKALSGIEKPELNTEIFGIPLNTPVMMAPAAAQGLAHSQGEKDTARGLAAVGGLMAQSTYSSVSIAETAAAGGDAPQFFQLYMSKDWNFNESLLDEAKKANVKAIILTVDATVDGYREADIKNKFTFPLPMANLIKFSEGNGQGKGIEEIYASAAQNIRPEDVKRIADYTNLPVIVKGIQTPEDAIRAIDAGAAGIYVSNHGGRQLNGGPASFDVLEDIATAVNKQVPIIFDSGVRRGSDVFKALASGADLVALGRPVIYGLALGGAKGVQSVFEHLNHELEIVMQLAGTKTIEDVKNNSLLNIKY
The data set is described as follows: X-ray crystallography, […] Å (refolded with FMN: 6RHS, […] Å); SEC. The class given is binding. As to conditions: FMN in active site; FMN addition turns apo monomer into tetramer.

Substrate in the data set “purified protein”: C[C@H](O)C(=O)O
In words: purified protein. As to conditions: pH 6.5 (DMGA buffer), 37 °C, FMN added, air, L-lactate 0.2-2.0 mM, in-house recombinant enzyme.

Data set [1] deals with the molecule itself. In words: SEC; recombinant AvLCTO, data not shown. (SEC sorts molecules by how far they enter the pores of the column.)
Data set [2] concerns the molecule itself. In words: SEC; analytical SEC of the yellow, FMN-containing fraction; Superdex 200 Increase 10/300 calibrated with Bio-Rad standards; 30 mM Hepes pH 7.5, 350 mM NaCl, 0.5 mM TCEP.

For the molecule `Cc1cc2nc3c(=O)[nH]c(=O)nc-3n(C[C@H](O)[C@H](O)[C@H](O)COP(=O)(O)O)c2cc1C` [FMN], at PaLCTO, the “X-ray crystallography, 1.9 Å (refolded with FMN: 6RHS, 2.6 Å); SEC” value was “The hydrogen bonding network between FMN and the surrounding residues contains in total twelve interactions”.

B1: Aerococcus viridans lactate oxidase (enzyme)
chain: MNNNDIEYNAPSEIKYIDVVNTYDLEEEASKVVPHGGFNYIAGASGDEWTKRANDRAWKHKLLYPRLAQDVEAPDTSTEILGHKIKAPFIMAPIAAHGLAHTTKEAGTARAVSEFGTIMSISAYSGATFEEISEGLNGGPRWFQIYMAKDDQQNRDILDEAKSDGATAIILTADSTVSGNRDRDVKNKFVYPFGMPIVQRYLRGTAEGMSLNNIYGASKQKISPRDIEEIAGHSGLPVFVKGIQHPEDADMAIKRGASGIWVSNHGARQLYEAPGSFDTLPAIAERVNKRVPIVFDSGVRRGEHVAKALASGADVVALGRPVLFGLALGGWQGAYSVLDYFQKDLTRVMQLTGSQNVEDLKGLDLFDNPYGYEY
notes: L-lactate oxidase of Aerococcus viridans, cloned from genomic DNA of strain DSM 20340; also called AvLCTO; recombinant AvLCTO; source: E. coli BL21 (DE3), purified
B1: in the data set “purified protein”, the Km is 520 ± 50 µM. Moreover, the “stoichiometry N” value in data set [1] was 4.

B2: Pediococcus acidilactici lactate oxidase (enzyme)
chain: MTMINGYEQSDREEKIDILNLESLEKQAEEIIPAGGFGYIAGGSEDEWTLKQNRMAFHHRQIAPKALSGIEKPELNTEIFGIPLNTPVMMAPAAAQGLAHSQGEKDTARGLAAVGGLMAQSTYSSVSIAETAAAGGDAPQFFQLYMSKDWNFNESLLDEAKKANVKAIILTVDATVDGYREADIKNKFTFPLPMANLIKFSEGNGQGKGIEEIYASAAQNIRPEDVKRIADYTNLPVIVKGIQTPEDAIRAIDAGAAGIYVSNHGGRQLNGGPASFDVLEDIATAVNKQVPIIFDSGVRRGSDVFKALASGADLVALGRPVIYGLALGGAKGVQSVFEHLNHELEIVMQLAGTKTIEDVKNNSLLNIKY
notes: putative L-lactate oxidase of Pediococcus acidilactici DSM 20284, Uniprot E0NE46; gene cloned from genomic DNA into pNH-TrxT; theoretical monomer mass 39 kDa; The same polypeptide without FMN (colourless fraction, or deflavinated) is a monomer that lacks secondary structure by CD; also called PaLCTO; WT PaLCTO; source: E. coli BL21 (DE3), purified (Ni-NTA, TEV cleavage, second Ni-NTA, SEC); not …
For B2, the “stoichiometry N” value in data set [2] amounted to 4.

As a reminder, the Km is the concentration of substrate that gives half-maximal velocity. One may read the stoichiometry N as a count of units in the complex or per binding partner.
